Source: patent publication US20240117030A1 (Pfizer, published 2024)
Positions count from the first letter of the chain named. Where two headings read alike, the source gives them in different places. Values belong to the binder of their own block, whether it stands above or below them.

Key:
Assay in all cases: cell-based or functional assay
human IL-13 [1] = target: T1, human IL-13 (human, UniProt P35225 35-146)
human IL-13 [2] = target: T1, human IL-13; remark: listed apart in the source
recombinant human IL-13 [3] = target: recombinant human IL-13 (human, UniProt P35225 35-146)
recombinant human IL-4 [4] = target: T2, recombinant human IL-4 (human, UniProt P05112 25-153)
T2 sequence (looked up): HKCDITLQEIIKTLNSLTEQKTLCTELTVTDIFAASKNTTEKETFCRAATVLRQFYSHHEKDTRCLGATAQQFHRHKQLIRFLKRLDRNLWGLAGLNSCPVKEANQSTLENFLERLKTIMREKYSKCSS

recombinant human IL-33 = target: T3, recombinant human IL-33 (human, UniProt O95760 112-270, limits assumed)
T3 sequence (looked up): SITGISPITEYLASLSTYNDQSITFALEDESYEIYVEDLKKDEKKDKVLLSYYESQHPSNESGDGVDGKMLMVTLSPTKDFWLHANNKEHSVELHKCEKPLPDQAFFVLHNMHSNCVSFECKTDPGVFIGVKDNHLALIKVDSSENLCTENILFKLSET

recombinant human IL-13 [5] = target: recombinant human IL-13 (human, UniProt P35225 35-146); remark: listed apart in the source
recombinant human IL-4 [6] = target: T4, recombinant human IL-4 (human, UniProt P05112 25-153); remark: listed apart in the source
T4 sequence (looked up): T2 sequence (looked up)

human IL-33 mm2 Cys = target: T5, human IL-33 mm2 Cys (human, UniProt O95760 112-270, limits assumed)
T5 sequence (looked up): T3 sequence (looked up) with C97S, C116S, C121S, C148S

[7] = target: recombinant human TSLP (glycosylated long form) (human, UniProt Q969D9 29-159)

T1 sequence (P35225 35-146 limits assumed, form in doubt): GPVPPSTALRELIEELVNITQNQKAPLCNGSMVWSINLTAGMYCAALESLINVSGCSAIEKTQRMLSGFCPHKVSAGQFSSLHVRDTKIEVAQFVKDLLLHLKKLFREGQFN

- CD23: Fold bioactivity relative to IL13-0001 (human IL-13 [1]): 0.03 fold
- CD23: Fold bioactivity relative to IL13-1307 (human IL-13 [1]): 1 fold
- CD23 IC50 [pM] (human IL-13 [1]): 306 pM
- pSTAT6: Fold bioactivity relative to IL13-0001 (human IL-13 [1]): 0.7 fold
- pSTAT6: Fold bioactivity relative to IL13-1307 (human IL-13 [1]): 1 fold
- pSTAT6 IC50 [pM] (human IL-13 [1]): 140 pM
- CD23 IC50 [pM] (human IL-13 [2]): 214 pM
- pSTAT6 IC50 [pM] (human IL-13 [2]): 225 pM
B1: IL13-1307 (antibody, IgG1, V domains shown)
VH: EVQLVESGGGLVQPGGSLRLSCAASGFTFSSYAMSWVRQAPGKGLEWVASISSGDTTYYPDSVKGRFTISRDNAKNSLYLQMNSLRAEDTAVYYCARLDGYYFGFPYWGQGTLVTVSS
VL: DIQMTQSPSSLSASVGDRVTITCKASESVDHSGSSLMHWYQQKPGKAPKLLIYRASNLESGVPSRFSGSGSGTDFTLTISSLQPEDFATYYCQQSNEDPWTFGGGTKVEIK

- a-hIL-13 bioassay (IC50, pM) (recombinant human IL-13 [3]): 4.83 pM
B2: IL13-0001 (antibody, human IgG1, kappa, V domains shown)
VH: B1 VH with L98N, D99E, F105L, P106T, Y107L
VL: DIQMTQSPSSLSASVGDRVTITCKASESVDHFGWSLVHWYQQKPGKAPKLLIYRASNLESGVPSRFSGSGSGTDFTLTISSLQPEDFATYYCQQSNEDPWTFGGGTKVEIKR

- IL-4 Induced CD23 Expression, potency of cytokine neutralization (recombinant human IL-4 [4]): 0.0137 nM
- IL-33 WT Activation of SEAP Reporter Cells, potency of cytokine neutralization (recombinant human IL-33): 0.013 nM
- IL-13 Induced CD23 Expression, potency of cytokine neutralization (recombinant human IL-13 [5]): 0.00913 nM
B3: IL13433-1279 (other)
VH 1: B1 VH with L98N, D99E, F105L, P106T, Y107L
VL 1: B1 VL with S32F, S34W, M37V
VH 2: EVTLRESGPALVKPTQTLTLTCTFSGFSLSNFGEGLSWIRQPPGKGLEWLAHIYWDDDKRYNPSLKSRLTISKDTSRNQVVLTMTNMDPVDTATYYCARRETVFYWYFDVWGQGTTVTVSS
VL 2: B1 VL with K24R, E27Q, H31E, S32E, S34D, L36Y, H38N, R54A, E97K, W100P
VH 3: EVQLVESGGGLVQPGGSLRLSCAASGFTFSSYWMYWVRQAPGKGLEWVAAITPNAGEDYYPESVKGRFTISRDNAKNSLYLQMNSLRAEDTAVYYCARGQYYYTKYSLGYWGQGTLVTVSS
VL 3: DIQMTQSPSSLSASVGDRVTITCRASQPIHNHLDWYQQKPGKAPKLLIYFGKNLQEGVPSRFSGSGSGTDFTLTISSLQPEDFATYYCFQYKKGWSFGGGTKVEIK

- CD23 IC50 [pM] (human IL-13 [2]): 261 pM
- pSTAT6 IC50 [pM] (human IL-13 [2]): 427 pM
B4: IL13-1283 (antibody, human IgG1, kappa, V domains shown)
VH: B1 VH with S30I, D55G, T56N, P106A
VL: B2 VL with H31N, F32Y, W34K, V37M

- a-hIL-4 bioassay IC50, pM) (recombinant human IL-4 [6]): 3.42 pM
B5: IL4-0002 (antibody, human IgG1, kappa)
heavy: EVTLRESGPALVKPTQTLTLTCTFSGFSLSNFGEGLSWIRQPPGKGLEWLAHIYWDDDKRYNPSLKSRLTISKDTSRNQVVLTMTNMDPVDTATYYCARRETVFYWYFDVWGQGTTVTVSSASTKGPSVFPLAPSSKSTSGGTAALGCLVKDYFPEPVTVSWNSGALTSGVHTFPAVLQSSGLYSLSSVVTVPSSSLGTQTYICNVNHKPSNTKVDKKVEPKSCDKTHTCPPCPAPEAAGAPSVFLFPPKPKDTLMISRTPEVTCVVVDVSHEDPEVKFNWYVDGVEVHNAKTKPREEQYNSTYRVVSVLTVLHQDWLNGKEYKCKVSNKALPAPIEKTISKAKGQPREPQVYTLPPSREEMTKNQVSLTCLVKGFYPSDIAVEWESNGQPENNYKTTPPVLDSDGSFFLYSKLTVDKSRWQQGNVFSCSVMHEALHNHYTQKSLSLSPGK
light: DIQMTQSPSSLSASVGDRVTITCKASQSVDEDGDSYMNWYQQKPGKAPKLLIYAASNLESGVPSRFSGSGSGTDFTLTISSLQPEDFATYYCQQSNEDPPTFGGGTKVEIKRTVAAPSVFIFPPSDEQLKSGTASVVCLLNNFYPREAKVQWKVDNALQSGNSQESVTEQDSKDSTYSLSSTLTLSKADYEKHKVYACEVTHQGLSSPVTKSFNRGEC

- pSTAT6 IC50 [pM] (human IL-13 [2]): 290 pM
B6: IL13-1306 (antibody, mouse IgG1, V domains shown)
VH: EVKLVESGGDLVKPGGSLKLSCAASGFTFSSYAMSWVRQSPDKRLEWVASISSGDTTYYPDSVKGRFTISRDNARNILYLQMTSLRSEDTAMYYCARLDGYYFGFPYWGQGTLVTVSA
VL: DTVLTQSPASLAVSLGQRATISCKASESVDHSGSSLMHWYQQKPGQSPKLLIYRASNLESGIPARFSGSGSRTDFTLTINPVEADDVATYYCQQSNEDPWTFGGGTKLEIK

- IC50 [pM] versus human IL-33 mm2 Cys (HEK-Blue SEAP) (human IL-33 mm2 Cys): 158 pM
B7: IL33-0217 (antibody, human IgG1, kappa, V domains shown)
VH: B3 VH 3 with Q100H, K105S
VL: DIQMTQSPSSLSASVGDRVTITCRASQNINKHLDWYQQKPGKAPKLLIYFTNNLQTGVPSRFSGSGSGTDFTLTISSLQPEDFATYYCFQYNQGWTFGGGTKVEIKR

- IC50 [pM] versus human IL-33 mm2 Cys (HEK-Blue SEAP) (human IL-33 mm2 Cys): 176 pM
B8: IL33-0220 (antibody, human IgG1, kappa, V domains shown)
VH: B3 VH 3 with Q100H, K105S
VL: B7 VL with N30Y

- IC50 [pM] versus human IL-33 mm2 Cys (HEK-Blue SEAP) (human IL-33 mm2 Cys): 142 pM
B9: IL33-0219 (antibody, human IgG1, kappa, V domains shown)
VH: B3 VH 3 with Q100H, K105S
VL: B7 VL with N30Q

- IC50 [pM] versus human IL-33 mm2 Cys (HEK-Blue SEAP) (human IL-33 mm2 Cys): 115 pM
B10: IL33-0224 (antibody, human IgG1, V domains shown)
VH: B3 VH 3 with Q100H, K105S
VL: B3 VL 3 with H30S, N31K, G51T, K52N, E56T, K92N, K93Q, S96T

- a-TSLP TARC bioassay (fold change to TSLP-0001) [7]: 2.5 fold
B11: TSLP-0820 (antibody, human IgG1, lambda, V domains shown)
VH: EMQLVESGGGLVQPGGSLRLSCAASGFTFRTYGMHWVRQAPGKGLEWVAVIWYDGSNKHYADSVKGRFTISRDNAKNSLYLQMNSLRAEDTAVYYCARAPQWYLVHEAFDIWGQGTMVTVSS
VL: SYVLTQPPSVSVAPGQTARITCGGNNLGSKSVHWYQQKPGQAPVLVVYDDSDRPSWIPERFSGSNSGNTATLTISRGEAGDEADYYCQVWDSSSDHVVFGGGTKLTVLG

- a-TSLP TARC bioassay (fold change to TSLP-0001) [7]: 5.1 fold
B12: TSLP-2002 (antibody, human IgG1, lambda, V domains shown)
VH: B11 VH
VL: B11 VL with S51K, S93K

- a-TSLP TARC bioassay (fold change to TSLP-0001) [7]: 6.4 fold
B13: TSLP-2004 (antibody, human IgG1, lambda, V domains shown)
VH: B11 VH
VL: B11 VL with S92K

- a-TSLP TARC bioassay (fold change to TSLP-0001) [7]: 7.2 fold
B14: TSLP-2000 (antibody, human IgG1, lambda, V domains shown)
VH: B11 VH
VL: B11 VL with D95K
